Test results published in article PMC5397179.

How the values were obtained:
[1] = system: PcrA-sCt (C-terminal Tudor-like domain) (Geobacillus stearothermophilus); test: EMSA; conditions: no binding detected up to 5 uM; 2.5 mM Mg2+; EMSA: 50 nM (so in the source) HEPES-KOH pH 7.5, 100 mM KCl, 2.5 mM MgCl2, 0.1 mg/mL BSA, 1 mM (reagent truncated in material); 20 nM DNA; TBE-PAGE; temperature not …
RNAP subunit β' = test: pulldown quantified by mass spectrometry; conditions: parent: est. 12; read off a plot
RNAP subunit α = test: pulldown quantified by mass spectrometry; conditions: parent: est. 6.2; read off a plot
RNAP subunit ω = test: pulldown quantified by mass spectrometry; conditions: parent: est. 13; read off a plot
RNAP subunit β = test: pulldown quantified by mass spectrometry; conditions: parent: est. 16; read off a plot
RNAP subunit δ = test: pulldown quantified by mass spectrometry; conditions: parent: est. 12; read off a plot

Row | other: Relative Ion Score (RNAP subunit β') | other: Relative Ion Score (RNAP subunit α) | other: Relative Ion Score (RNAP subunit ω) | other: Relative Ion Score (RNAP subunit β) | other: Relative Ion Score (RNAP subunit δ) | Substance | Kd [1] [µM]
1 |  |  |  |  |  | 147 base ssDNA oligonucleotide | > 5
2 |  |  |  |  |  | 147 bp dsDNA | > 5
3 | 3.6 | 2.7 | 4.7 | 4.5 | 3.1 | Biotinylated full length PcrA (Geobacillus stearothermophilus), wild type (from UniProt P56255) K712A | 
4 | 2.8 | 2.7 | 2.6 | 4.1 | 3.6 | Biotinylated full length PcrA (Geobacillus stearothermophilus), wild type (from UniProt P56255) L714A | 
